This is an account of results in patent US20100136006A1.

The target in test [1] is IL34 (interleukin 34 ligand) (UniProt Q6ZMJ4). As to the kind of experiment: cell-based or functional assay.
The target of test [2] is CSF1 (colony stimulating factor 1 ligand) (UniProt P09603). As to the kind of experiment: cell-based or functional assay.
Chain of UniProt P09603 (P09603 33-190 limits assumed): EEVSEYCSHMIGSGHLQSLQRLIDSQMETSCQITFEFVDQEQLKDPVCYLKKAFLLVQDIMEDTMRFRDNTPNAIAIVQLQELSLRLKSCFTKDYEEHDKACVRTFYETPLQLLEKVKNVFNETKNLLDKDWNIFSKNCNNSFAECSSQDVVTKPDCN

Chain of UniProt Q6ZMJ4 (Q6ZMJ4 21-242 limits assumed): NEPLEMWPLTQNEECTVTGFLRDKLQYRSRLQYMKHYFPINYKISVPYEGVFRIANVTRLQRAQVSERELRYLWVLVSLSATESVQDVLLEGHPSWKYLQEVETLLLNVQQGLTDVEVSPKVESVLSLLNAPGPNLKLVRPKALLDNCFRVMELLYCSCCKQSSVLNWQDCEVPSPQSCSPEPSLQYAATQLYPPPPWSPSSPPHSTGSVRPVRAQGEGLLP

As to hCSF1R-ECD.506-Fc (Fc fusion), in test [1], the IC50 for inhibition of IL34-induced monocyte proliferation stood at 0.27 nM. The substance also returned an IC50 for inhibition of CSF1-induced monocyte proliferation in test [2] of 1.5 nM.
